Publication PMC5387316, “Distinctive molecular and biochemical characteristics of a glycoside hydrolase family 20 β-N-acetylglucosaminidase and salt tolerance” (BMC Biotechnology, 2017)
Blank lines part the entries; values can stand above or below the molecule they belong to.

Assays:
rHJ5Nag = biological target: T1, rHJ5Nag (Microbacterium sp. HJ5, UniProt A0A1W6AQA7); assay: pNP release assay, nonlinear mixed-model inhibition fit; assay type: biochemical; details: 0.1-1.2 mM pNPGlcNAc; pH 6.0; 45 °C; mixed competitive and noncompetitive inhibition (alpha 3.412); product inhibitor at 5.0 and 10.0 mM
T1 construct: pEASY-E2 in E. coli BL21 (DE3), purified on Ni-NTA
T1 sequence (A0A1W6AQA7 21-535): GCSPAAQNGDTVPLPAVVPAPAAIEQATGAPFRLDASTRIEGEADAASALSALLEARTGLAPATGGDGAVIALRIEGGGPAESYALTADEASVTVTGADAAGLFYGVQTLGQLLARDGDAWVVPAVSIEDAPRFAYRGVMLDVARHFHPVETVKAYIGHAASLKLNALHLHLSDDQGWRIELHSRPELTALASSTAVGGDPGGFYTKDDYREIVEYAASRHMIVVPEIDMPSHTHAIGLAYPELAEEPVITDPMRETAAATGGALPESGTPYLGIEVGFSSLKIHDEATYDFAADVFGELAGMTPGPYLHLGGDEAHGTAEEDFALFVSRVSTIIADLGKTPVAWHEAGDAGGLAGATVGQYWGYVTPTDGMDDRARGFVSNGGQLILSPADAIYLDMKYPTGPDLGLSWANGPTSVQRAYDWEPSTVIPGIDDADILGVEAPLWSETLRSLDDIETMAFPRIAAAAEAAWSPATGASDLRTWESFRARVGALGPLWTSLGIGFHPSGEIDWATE

[1] = substrate: CC(=O)N[C@H]1[C@H](Oc2ccc([N+](=O)[O-])cc2)O[C@H](CO)[C@@H](O)[C@@H]1O; assay: pNP release assay, nonlinear Michaelis-Menten fit; assay type: biochemical, Microbacterium sp. HJ5; details: pH 6.0, 45 °C, McIlvaine buffer, without added GlcNAc

- Ki (rHJ5Nag): 14.6 mM
Molecule: CC(=O)N[C@H]1C(O)O[C@H](CO)[C@@H](O)[C@@H]1O (stereo partly drawn) [N-acetylglucosamine]

B1: rHJ5Nag (Microbacterium sp. HJ5) (protein)
chain: T1 sequence (A0A1W6AQA7 21-535)
notes: pEASY-E2 in E. coli BL21 (DE3), purified on Ni-NTA
- Km [1]: 520 ± 50 µM
- kcat [1]: 2886 ± 116 s⁻¹
